The data set “SEC” concerns the molecule itself. Description: SEC. Background: In gel filtration, larger molecules generally elute earlier.
The next data set concerns the target T1, fission yeast profilin (fission yeast, UniProt P39825 1-127).
T1 sequence (looked up): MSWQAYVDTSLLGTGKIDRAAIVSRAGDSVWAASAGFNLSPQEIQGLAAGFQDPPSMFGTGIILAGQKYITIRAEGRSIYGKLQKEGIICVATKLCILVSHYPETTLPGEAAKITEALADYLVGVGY
Nature of the data set: other fluorescence titration.

B1: Cdc12(FH2), wild type (domain or fragment, S. pombe, UniProt Q10059 973-1390, looked up)
chain: KDDLHKTTGLTRRPTRRLKQMHWEKLNSGLEFTFWTGPSDEANKILETLHTSGVLDELDESFAMKEAKTLVKKTCARTDYMSSELQKLFGIHFHKLSHKNPNEIIRMILHCDDSMNECVEFLSSDKVLNQPKLKADLEPYRIDWANGGDLVNSEKDASELSRWDYLYVRLIVDLGGYWNQRMNALKVKNIIETNYENLVRQTKLIGRAALELRDSKVFKGLLYLILYLGNYMNDYVRQAKGFAIGSLQRLPLIKNANNTKSLLHILDITIRKHFPQFDNFSPELSTVTEAAKLNIEAIEQECSELIRGCQNLQIDCDSGALSDPTVFHPDDKILSVILPWLMEGTKKMDFLKEHLRTMNTTLNNAMRYFGEQPNDPNSKNLFFKRVDSFIIDYSKARSDNLKSEEEEASQHRRLNLVN
As to B1, in “SEC”, the binding result is on record as “binds”.

B2: Cdc12(FH2) K991A (domain or fragment, S. pombe, UniProt Q10059 973-1390, looked up)
chain: KDDLHKTTGLTRRPTRRLAQMHWEKLNSGLEFTFWTGPSDEANKILETLHTSGVLDELDESFAMKEAKTLVKKTCARTDYMSSELQKLFGIHFHKLSHKNPNEIIRMILHCDDSMNECVEFLSSDKVLNQPKLKADLEPYRIDWANGGDLVNSEKDASELSRWDYLYVRLIVDLGGYWNQRMNALKVKNIIETNYENLVRQTKLIGRAALELRDSKVFKGLLYLILYLGNYMNDYVRQAKGFAIGSLQRLPLIKNANNTKSLLHILDITIRKHFPQFDNFSPELSTVTEAAKLNIEAIEQECSELIRGCQNLQIDCDSGALSDPTVFHPDDKILSVILPWLMEGTKKMDFLKEHLRTMNTTLNNAMRYFGEQPNDPNSKNLFFKRVDSFIIDYSKARSDNLKSEEEEASQHRRLNLVN
On to B2, for which the binding result in “SEC” is “binds”.

B3: Cdc12(FH2) I1063A (domain or fragment, S. pombe, UniProt Q10059 973-1390, looked up)
chain: KDDLHKTTGLTRRPTRRLKQMHWEKLNSGLEFTFWTGPSDEANKILETLHTSGVLDELDESFAMKEAKTLVKKTCARTDYMSSELQKLFGAHFHKLSHKNPNEIIRMILHCDDSMNECVEFLSSDKVLNQPKLKADLEPYRIDWANGGDLVNSEKDASELSRWDYLYVRLIVDLGGYWNQRMNALKVKNIIETNYENLVRQTKLIGRAALELRDSKVFKGLLYLILYLGNYMNDYVRQAKGFAIGSLQRLPLIKNANNTKSLLHILDITIRKHFPQFDNFSPELSTVTEAAKLNIEAIEQECSELIRGCQNLQIDCDSGALSDPTVFHPDDKILSVILPWLMEGTKKMDFLKEHLRTMNTTLNNAMRYFGEQPNDPNSKNLFFKRVDSFIIDYSKARSDNLKSEEEEASQHRRLNLVN
With B3, in “SEC”, the binding result was “binds”.

B4: Cdc12(FH2) K1226A (domain or fragment, S. pombe, UniProt Q10059 973-1390, looked up)
chain: KDDLHKTTGLTRRPTRRLKQMHWEKLNSGLEFTFWTGPSDEANKILETLHTSGVLDELDESFAMKEAKTLVKKTCARTDYMSSELQKLFGIHFHKLSHKNPNEIIRMILHCDDSMNECVEFLSSDKVLNQPKLKADLEPYRIDWANGGDLVNSEKDASELSRWDYLYVRLIVDLGGYWNQRMNALKVKNIIETNYENLVRQTKLIGRAALELRDSKVFKGLLYLILYLGNYMNDYVRQAKGFAIGSLQRLPLIANANNTKSLLHILDITIRKHFPQFDNFSPELSTVTEAAKLNIEAIEQECSELIRGCQNLQIDCDSGALSDPTVFHPDDKILSVILPWLMEGTKKMDFLKEHLRTMNTTLNNAMRYFGEQPNDPNSKNLFFKRVDSFIIDYSKARSDNLKSEEEEASQHRRLNLVN
B4: in “SEC”, the binding result is recorded as “binds”.

B5: Cdc12(FH2) G1201R, N1202P (domain or fragment, S. pombe, UniProt Q10059 973-1390, looked up)
chain: KDDLHKTTGLTRRPTRRLKQMHWEKLNSGLEFTFWTGPSDEANKILETLHTSGVLDELDESFAMKEAKTLVKKTCARTDYMSSELQKLFGIHFHKLSHKNPNEIIRMILHCDDSMNECVEFLSSDKVLNQPKLKADLEPYRIDWANGGDLVNSEKDASELSRWDYLYVRLIVDLGGYWNQRMNALKVKNIIETNYENLVRQTKLIGRAALELRDSKVFKGLLYLILYLRPYMNDYVRQAKGFAIGSLQRLPLIKNANNTKSLLHILDITIRKHFPQFDNFSPELSTVTEAAKLNIEAIEQECSELIRGCQNLQIDCDSGALSDPTVFHPDDKILSVILPWLMEGTKKMDFLKEHLRTMNTTLNNAMRYFGEQPNDPNSKNLFFKRVDSFIIDYSKARSDNLKSEEEEASQHRRLNLVN
On to B5, for which the binding result in “SEC” is reported as “binds”.

B6: Cdc12(FH1) (domain or fragment, S. pombe, UniProt Q10059 882-972, looked up)
chain: NNSKITNFDIPNDATSLPTIITHPTPPPPPPLPVKTSLNTFSHPDSVNIVANDTSVAGVMPAFPPPPPPPPPLVSAAGGKFVSPAVSNNIS
Regarding B6, the Kd in the data set with fission yeast profilin was found to be 1700 nM.

B7: Fus1(FH1) (domain or fragment, S. pombe, UniProt Q10719 792-862, looked up)
chain: MRIKEVIDGNPFKAPPPAPLPPPAPPLPTAMSSLQKFEKNDSQIFRKTIIIPENISIDDIFKFCSGSESEV
In the data set with fission yeast profilin, B7 came in with a Kd of 1300 nM.

B8: For3(FH1) (domain or fragment, S. pombe, UniProt O94532 718-837, looked up)
chain: SDTVEEQQKLLLKSPPPPPPAVIVPTPAPAPIPVPPPAPIMGGPPPPPPPPGVAGAGPPPPPPPPPAVSAGGSRYYAPAPQAEPEPKIDETSLTEEQKIQLEEARKQRKAADDAARAAIE
B8: the Kd with fission yeast profilin was determined as 6500 nM.

Broadly, the Kd is the concentration at which binding is half-saturated.

For the origin of these results see PMC3192862 (Molecular Biology of the Cell, 2011).
